Laboratory results taken from publication doi:10.1101/244665 (bioRxiv, 2019).

B1: PfA-M17(Δ388–390) (enzyme, Plasmodium falciparum, UniProt Q8IL11 85-605, looked up)
chain: ASEVPQVVSLDPTSIPIEYNTPIHDIKVQVYDIKGGCNVEEGLTIFLVNNPGKENGPVKISSKVNDKNVSEFLKDENMEKFNVKLGTSKHFYMFNDNKNSVAVGYVGCGSVADLSEADMKRVVLSLVTMLHDNKLSKLTVVFEINVDKNLFRFFLETLFYEYMTDERFKSTDKNVNMEYIKHLGVYINNADTYKEEVEKARVYYFGTYYASQLIAAPSNYCNPVSLSNAAVELAQKLNLEYKILGVKELEELKMGAYLSVGKGSMYPNKFIHLTYKSKGDVKKKIALVGKGITFDSGGYNLKASMIDLMKFDMSGCAAVLGCAYCVGTLKPENVEIHFLSAVCENMVSKNSYRPGDIITASNGKTIEVGNTDAEGRLTLADALVYAEKLGVDYIVDIATLTGAMLYSLGTSYAGVFGNNEELINKILNSSKTSNEPVWWLPIINEYRATLNSKYADINNISSSVKASSIVASLFLKEFVQNTAWAHIDIAGVSWNFKARKPKGFGVRLLTEFVLNDAL
B2: PfA-M17(Δ388–389) (enzyme, Plasmodium falciparum, UniProt Q8IL11 85-605, looked up)
chain: ASEVPQVVSLDPTSIPIEYNTPIHDIKVQVYDIKGGCNVEEGLTIFLVNNPGKENGPVKISSKVNDKNVSEFLKDENMEKFNVKLGTSKHFYMFNDNKNSVAVGYVGCGSVADLSEADMKRVVLSLVTMLHDNKLSKLTVVFEINVDKNLFRFFLETLFYEYMTDERFKSTDKNVNMEYIKHLGVYINNADTYKEEVEKARVYYFGTYYASQLIAAPSNYCNPVSLSNAAVELAQKLNLEYKILGVKELEELKMGAYLSVGKGSMYPNKFIHLTYKSKGDVKKKIALVGKGITFDSGGYNLKAGSMIDLMKFDMSGCAAVLGCAYCVGTLKPENVEIHFLSAVCENMVSKNSYRPGDIITASNGKTIEVGNTDAEGRLTLADALVYAEKLGVDYIVDIATLTGAMLYSLGTSYAGVFGNNEELINKILNSSKTSNEPVWWLPIINEYRATLNSKYADINNISSSVKASSIVASLFLKEFVQNTAWAHIDIAGVSWNFKARKPKGFGVRLLTEFVLNDAL
B3: Plasmodium falciparum M17 aminopeptidase (PfA-M17), wild type, truncated (amino acids 85-605) (enzyme, UniProt Q8IL11 85-605, looked up)
chain: ASEVPQVVSLDPTSIPIEYNTPIHDIKVQVYDIKGGCNVEEGLTIFLVNNPGKENGPVKISSKVNDKNVSEFLKDENMEKFNVKLGTSKHFYMFNDNKNSVAVGYVGCGSVADLSEADMKRVVLSLVTMLHDNKLSKLTVVFEINVDKNLFRFFLETLFYEYMTDERFKSTDKNVNMEYIKHLGVYINNADTYKEEVEKARVYYFGTYYASQLIAAPSNYCNPVSLSNAAVELAQKLNLEYKILGVKELEELKMGAYLSVGKGSMYPNKFIHLTYKSKGDVKKKIALVGKGITFDSGGYNLKAAPGSMIDLMKFDMSGCAAVLGCAYCVGTLKPENVEIHFLSAVCENMVSKNSYRPGDIITASNGKTIEVGNTDAEGRLTLADALVYAEKLGVDYIVDIATLTGAMLYSLGTSYAGVFGNNEELINKILNSSKTSNEPVWWLPIINEYRATLNSKYADINNISSSVKASSIVASLFLKEFVQNTAWAHIDIAGVSWNFKARKPKGFGVRLLTEFVLNDAL
B4: PfA-M17(A387P) (enzyme, Plasmodium falciparum, UniProt Q8IL11 85-605, looked up)
chain: ASEVPQVVSLDPTSIPIEYNTPIHDIKVQVYDIKGGCNVEEGLTIFLVNNPGKENGPVKISSKVNDKNVSEFLKDENMEKFNVKLGTSKHFYMFNDNKNSVAVGYVGCGSVADLSEADMKRVVLSLVTMLHDNKLSKLTVVFEINVDKNLFRFFLETLFYEYMTDERFKSTDKNVNMEYIKHLGVYINNADTYKEEVEKARVYYFGTYYASQLIAAPSNYCNPVSLSNAAVELAQKLNLEYKILGVKELEELKMGAYLSVGKGSMYPNKFIHLTYKSKGDVKKKIALVGKGITFDSGGYNLKPAPGSMIDLMKFDMSGCAAVLGCAYCVGTLKPENVEIHFLSAVCENMVSKNSYRPGDIITASNGKTIEVGNTDAEGRLTLADALVYAEKLGVDYIVDIATLTGAMLYSLGTSYAGVFGNNEELINKILNSSKTSNEPVWWLPIINEYRATLNSKYADINNISSSVKASSIVASLFLKEFVQNTAWAHIDIAGVSWNFKARKPKGFGVRLLTEFVLNDAL

Target: the molecule itself
Experiment: SEC
B1 was tested, and the “stoichiometry N” value was 6.
B2 was tested, and the “stoichiometry N” value was 6.
For B3, the “stoichiometry N” value was 6.
B4 was tested, and the “stoichiometry N” value was 6.
